According to patent US20030147847A1 (IMMUNEX, published 2003):

T1: NKG2D/Dap10 on transfected 293E cells (UniProt P26718 1-216; Q9UBK5 19-93)
T1 construct: whole, on cells; Co-expressed on 293 EBNA (293E) cells from the pDC409 vector; also called NKG2D+FLAG tagged Dap10
T1 sequence 1: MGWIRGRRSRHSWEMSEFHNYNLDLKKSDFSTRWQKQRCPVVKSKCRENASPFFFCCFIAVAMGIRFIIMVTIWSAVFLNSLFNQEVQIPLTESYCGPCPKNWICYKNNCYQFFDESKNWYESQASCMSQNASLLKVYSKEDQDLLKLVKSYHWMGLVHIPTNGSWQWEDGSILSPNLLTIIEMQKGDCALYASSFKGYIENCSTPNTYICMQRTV
T1 sequence 2: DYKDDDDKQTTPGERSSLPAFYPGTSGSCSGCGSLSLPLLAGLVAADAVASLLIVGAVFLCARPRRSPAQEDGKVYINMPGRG

T2: NKG2D alone on transfected 293 EBNA cells (UniProt P26718 1-216, limits assumed)
T2 construct: whole, on cells
T2 sequence (looked up): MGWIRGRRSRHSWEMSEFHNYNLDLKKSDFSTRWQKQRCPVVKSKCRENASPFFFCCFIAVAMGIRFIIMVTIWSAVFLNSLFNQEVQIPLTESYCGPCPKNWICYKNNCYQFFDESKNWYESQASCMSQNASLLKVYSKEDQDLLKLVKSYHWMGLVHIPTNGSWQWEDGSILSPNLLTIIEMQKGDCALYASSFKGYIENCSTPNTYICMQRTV

T3: FLAG tagged Dap10 alone on transfected 293 EBNA cells (UniProt Q9UBK5 19-93)
T3 construct: whole, on cells
T3 sequence: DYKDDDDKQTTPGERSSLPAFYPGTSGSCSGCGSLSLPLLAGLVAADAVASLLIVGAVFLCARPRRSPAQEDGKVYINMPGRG

B1: human ULBP2-Fc fusion polypeptide (Fc fusion)
chain: WSRAGRADPHSLCYDITVIPKFRPGPRWCAVQGQVDEKTFLHYDCGNKTVTPVSPLGKKLNVTTAWKAQNPVLREVVDILTEQLRDIQLENYTPKEPLTLQARMSCEQKAEGHSSGSWQFSFDGQIFLLFDSEKRMWTTVHPGARKMKEKWENDKVVAMSFHYFSMGDCIGWLEDFLMGMDSTLEPSAGAPLAMSSGTTQLRRSCDKTHTCPPCPAPEAEGAPSVFLFPPKPKDTLMISRTPEVTCVVVDVSHEDPEVKFNWYVDGVEVHNAKTKPREEQYNSTYRVVSVLTVLHQDWLNGKEYKCKVSNKALPAPIEKTISKAKGQPREPQVYTLPPSRDELTKNQVSLTCLVKGFYPSDIAVEWESNGQPENNYKTTPPVLDSDGSFFLYSKLTVDKSRWQQGNVFSCSVMHEALHNHYTQKSLSLSPGK
notes: ULBP-2 extracellular domain (residues 1-223) fused to the human IgG1 Fc mutein
B2: UL16-Fc fusion protein (Fc fusion)
chain: VDLGSKSSNSTCRLNVTELASIHPGETWTLHGMCISICYYENVTEDEIIGVAFTWQHNESVVDLWLYQNDTVIRNFSDITTNILQDGLKMRTVPVTKLYTSRMVTNLTVGRYDCLRCENGTTKIIERLYVRLGSLYPRPPGSGLAKHPSVSADEELSA
notes: extracellular domain; not shown: IgG1 Fc (mutein form), as described for OX40-Fc (Baum et al., EMBO J. 13:3992-4001, 1994); the mutein is described in p-
B3: human ULBP1-Fc fusion polypeptide (Fc fusion)
chain: WSRAGWVDTHCLCYDFIITPKSRPEPQWCEVQGLVDERPFLHYDCVNHKAKAFASLGKKVNVTKTWEEQTETLRDVVDFLKGQLLDIQVENLIPIEPLTLQARMSCEHEAHGHGRGSWQFLFNGQKFLLFDSNNRKWTALHPGAKKMTEKWEKNRDVTMFFQKISLGDCKMWLEEFLMYWEQMLDPTKPPSLAPGTTQPRSCDKTHTCPPCPAPEAEGAPSVFLFPPKPKDTLMISRTPEVTCVVVDVSHEDPEVKFNWYVDGVEVHNAKTKPREEQYNSTYRVVSVLTVLHQDWLNGKEYKCKVSNKALPAPIEKTISKAKGQPREPQVYTLPPSRDELTKNQVSLTCLVKGFYPSDIAVEWESNGQPENNYKTTPPVLDSDGSFFLYSKLTVDKSRWQQGNVFSCSVMHEALHNHYTQKSLSLSPGK
notes: ULBP-1 extracellular domain fused to the human IgG1 Fc mutein
B4: MICB/Fc (Fc fusion, UniProt Q29980 23-309, looked up)
chain: AEPHSLRYNLMVLSQDGSVQSGFLAEGHLDGQPFLRYDRQKRRAKPQGQWAENVLGAKTWDTETEDLTENGQDLRRTLTHIKDQKGGLHSLQEIRVCEIHEDSSTRGSRHFYYDGELFLSQNLETQESTVPQSSRAQTLAMNVTNFWKEDAMKTKTHYRAMQADCLQKLQRYLKSGVAIRRTVPPMVNVTCSEVSEGNITVTCRASSFYPRNITLTWRQDGVSLSHNTQQWGDVLPDGNGTYQTWVATRIRQGEEQRFTCYMEHSGNHGTHPVPSGKALVLQSQRTD
notes: also called MICB1/FC; not shown: Fc portion not described
B5: Full length UL16 on transfected 293 EBNA cells (other)
chain: VDLGSKSSNSTCRLNVTELASIHPGETWTLHGMCISICYYENVTEDEIIGVAFTWQHNESVVDLWLYQNDTVIRNFSDITTNILQDGLKMRTVPVTKLYTSRMVTNLTVGRYDCLRCENGTTKIIERLYVRLGSLYPRPPGSGLAKHPSVSADEELSATLARDIVLVSAITLFFFLLALRIPQRLCQRLRIRLPHRYQRLRTED
notes: whole, on cells; also called UL16 FL
B6: MICA/Fc (Fc fusion, UniProt Q29983 24-307, looked up)
chain: EPHSLRYNLTVLSWDGSVQSGFLTEVHLDGQPFLRCDRQKCRAKPQGQWAEDVLGNKTWDRETRDLTGNGKDLRMTLAHIKDQKEGLHSLQEIRVCEIHEDNSTRSSQHFYYDGELFLSQNLETKEWTMPQSSRAQTLAMNVRNFLKEDAMKTKTHYHAMHADCLQELRRYLKSGVVLRRTVPPMVNVTRSEASEGNITVTCRASGFYPWNITLSWRQDGVSLSHDTQQWGDVLPDGNGTYQTWVATRICQGEEQRFTCYMEHSGNHSTHPVPSGKVLVLQSHW
notes: not shown: Fc portion not described

Key:
[1] = biological target: human ULBP2-Fc fusion polypeptide (human); experiment: flow cytometry; ULBP2/FC preincubated with excess isotype control antibody, then added to 293E cells transfected with NKG2D/Dap10; goat anti-huIg PE
PERB11/Fc = experiment: flow cytometry; PERB11/FC preincubated with excess isotype control antibody, then added to 293E cells transfected with NKG2D/Dap10; goat anti-huIg PE
[2] = biological target: human ULBP1-Fc fusion polypeptide (human); experiment: flow cytometry; ULBP1/FC preincubated with excess isotype control antibody, then added to 293E cells transfected with NKG2D/Dap10; goat anti-huIg PE
ULBP3/Fc (human) = ULBP3/Fc (human) (UniProt Q9BZM4); experiment: flow cytometry; ULBP3/FC preincubated with excess isotype control antibody, then added to 293E cells transfected with NKG2D/Dap10; goat anti-huIg PE
[3] = biological target: T1, NKG2D/Dap10 on transfected 293E cells; experiment: flow cytometry, transfected 293 EBNA cells, 2 µg Fc protein + goat anti-human IgG PE
[4] = biological target: FLAG tagged Dap10 alone on transfected 293 EBNA cells (UniProt Q9UBK5); experiment: as above
[5] = biological target: Full length UL16 on transfected 293 EBNA cells (human cytomegalovirus) (UniProt P16757); experiment: as above
[6] = biological target: NKG2D alone on transfected 293 EBNA cells (UniProt P26718); experiment: as above
[7] = biological target: T1, NKG2D/Dap10 on transfected 293E cells; experiment: flow cytometry; NKG2D/Dap10-transfected 293E cells preincubated with 25 µg ULBP1/LZ (competitor)
[8] = biological target: T1, NKG2D/Dap10 on transfected 293E cells; experiment: flow cytometry; NKG2D/Dap10-transfected 293E cells preincubated with 25 µg hCD40L/LZ (control blocking protein)
[9] = biological target: T1, NKG2D/Dap10 on transfected 293E cells; experiment: flow cytometry; NKG2D/Dap10-transfected 293E cells, M1 + sheep anti-mouse IgG PE (expression control)
[10] = biological target: T1, NKG2D/Dap10 on transfected 293E cells; experiment: as above; remark: listed apart in the source
[11] = biological target: FLAG tagged Dap10 alone on transfected 293 EBNA cells (UniProt Q9UBK5); experiment: flow cytometry, transfected 293 EBNA cells, M1 + sheep anti-mouse IgG PE
[12] = biological target: T1, NKG2D/Dap10 on transfected 293E cells; experiment: as above
[13] = biological target: Full length UL16 on transfected 293 EBNA cells (human cytomegalovirus) (UniProt P16757); experiment: as above
[14] = biological target: NKG2D alone on transfected 293 EBNA cells (UniProt P26718); experiment: as above
[15] = biological target: NKG2D/Dap10 on transfected 293E cells (UniProt P26718); experiment: flow cytometry, transfected 293 EBNA cells, 2 µg Fc protein + goat anti-human IgG PE
[16] = biological target: T2, NKG2D alone on transfected 293 EBNA …; experiment: as above
[17] = biological target: B5; experiment: as above
[18] = biological target: T3, FLAG tagged Dap10 alone on transfected …; experiment: as above
MICA/Fc = biological target: B6; experiment: flow cytometry on 293 EBNA cells transfected with full length UL16

Sequence of ULBP3/Fc (human) (Q9BZM4 30-217): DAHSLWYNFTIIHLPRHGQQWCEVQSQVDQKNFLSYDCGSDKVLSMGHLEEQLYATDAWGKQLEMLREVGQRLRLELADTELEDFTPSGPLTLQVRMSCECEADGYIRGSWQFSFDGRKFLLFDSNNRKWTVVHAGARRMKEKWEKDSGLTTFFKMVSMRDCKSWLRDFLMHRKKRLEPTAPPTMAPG

Molecule	Mean Fluorescence Intensity (MFI) [3] [MFI]	Mean Fluorescence Intensity (MFI) [7] [MFI]	Mean Fluorescence Intensity (MFI) [8] [MFI]	Mean Fluorescence Intensity (MFI) [16] [MFI]	Mean Fluorescence Intensity (MFI) [17] [MFI]	Mean Fluorescence Intensity (MFI) [18] [MFI]	also measured
antibody M90 (isotype matched control antibody)	–	–	–	–	–	–	MFI of staining protein on NKG2D/Dap10 cells after preincubation with blocking antibody [1]: 192 MFI; MFI of staining protein on NKG2D/Dap10 cells after preincubation with blocking antibody (PERB11/Fc): 167 MFI; MFI of staining protein on NKG2D/Dap10 cells after preincubation with blocking antibody [2]: 216 MFI; MFI of staining protein on NKG2D/Dap10 cells after preincubation with blocking antibody (ULBP3/Fc (human)): 160 MFI
PERB11/Fc (Fc fusion)	109	11	280	–	–	–	Mean Fluorescence Intensity (MFI) [4]: 12.7 MFI; Mean Fluorescence Intensity (MFI) [5]: 161 MFI; Mean Fluorescence Intensity (MFI) [6]: 10.2 MFI
M1 anti-FLAG antibody	–	–	–	–	–	–	Mean Fluorescence Intensity (MFI) [9]: 261 MFI; Mean Fluorescence Intensity (MFI) [10]: 368 MFI; Mean Fluorescence Intensity (MFI) [11]: 112 MFI; Mean Fluorescence Intensity (MFI) [12]: 130 MFI; Mean Fluorescence Intensity (MFI) [13]: 11.3 MFI; Mean Fluorescence Intensity (MFI) [14]: 8.49 MFI
p7.5/Fc (Fc fusion)	–	–	–	–	–	–	Mean Fluorescence Intensity (MFI) [4]: 12.1 MFI; Mean Fluorescence Intensity (MFI) [5]: 12.1 MFI; Mean Fluorescence Intensity (MFI) [15]: 12.2 MFI; Mean Fluorescence Intensity (MFI) [6]: 9.99 MFI
B1	117	8	236	8.96	121	11.5	–
B2	21.2	–	–	27.9	17.9	39.2	–
B3	115	11	263	10.4	142	13.6	–
B4	118	9	258	9.58	94.5	18.4	–
B5	–	–	–	–	–	–	binding result (MICA/Fc): no binding (tested: 2 µg)
B6	120	11	256	15.4	14	12	–
